In patent US20050053923A1:

How the values were obtained:
[1] = target: Semi-purified recombinant West Nile virus NS1 with 8-His tag (West Nile virus) (UniProt Q9Q6P4); assay: sandwich ELISA: coated mAb 3.1112G captures rNS1, rabbit anti-WNV-NS1 polyclonal detection
[2] = target: recombinant NS1 (rNS1), construct not stated; assay: as above

UniProt Q9Q6P4, sequence (Q9Q6P4 799-1144, tags or fused parts left off): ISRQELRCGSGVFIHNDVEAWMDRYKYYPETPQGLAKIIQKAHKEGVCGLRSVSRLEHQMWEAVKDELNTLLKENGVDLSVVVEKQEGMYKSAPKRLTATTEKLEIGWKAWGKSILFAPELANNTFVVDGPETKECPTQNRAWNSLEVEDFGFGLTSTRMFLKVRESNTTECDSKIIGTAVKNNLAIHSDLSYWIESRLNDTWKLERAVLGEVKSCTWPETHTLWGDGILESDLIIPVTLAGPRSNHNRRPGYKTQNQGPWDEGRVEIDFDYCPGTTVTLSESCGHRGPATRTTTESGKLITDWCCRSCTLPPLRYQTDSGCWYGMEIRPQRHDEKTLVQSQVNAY

## monoclonal antibody against Kunjin NS1 (3.1112G, Chemicon International)
[1]
  O.D.: 0.887 O.D. 450 nm
[2]
  O.D.: 0.577 O.D. 450 nm
